US20240350835A1 (AMBRX, published 2024)

B1: Humanized Anti-PSMA Antibody Variant 1 ADC, MMAE payload, Non-Cleavable (PEG3) linker (antibody, human IgG1, kappa, V domains shown)
VH: QVQLVQSGAEVKKPGASVKVSCKASGYTFTEYTIHWVRQAPGQRLEWMGNINPNNGGTTYNQKFEDRVTITRDTSASTAYMELSSLRSEDTAVYYCAAGWNFDYWGQGTTLTVSS
VL: DIQLTQSPSFLSASVGDRVTITCKASQDVGTAVDWYQQKPGKAPKLLIYWASTRHTGVPSRFSGSGSGTEFTLTISSLQPEDFATYYCQQYNSYPLTFGGGTKVEIKR
modifications: para-acetyl phenylalanine (pAF) at position A114 (Kabat numbering; first residue of the heavy chain constant region), conjugated to non-cleavable (PEG3) MMAE drug-linker
B2: Humanized Anti-PSMA Antibody Variant 2 ADC, MMAF payload, Cleavable (Val-Citruline-PEG1) linker (antibody, human IgG1, kappa, V domains shown)
VH: QVQLVQSGAEVKKPGASVKVSCKASGYTFTEYTIHWVRQAPGQRLEWMGNINPNNGGTTYNQKFEDRVTITRDTSASTAYMELSSLRSEDTAVYYCAAGWNFDYWGQGTTLTVSS
VL: DIQLTQSPSFLSASVGDRVTITCKASQDVGTAVDWYQQKPGKAPKLLIYWASTRHTGVPSRFSGSGSGTEFTLTISSLQSEDFATYYCQQYNSYPLTFGGGTKVEIKR
modifications: para-acetyl phenylalanine (pAF) at position A114 (Kabat numbering; first residue of the heavy chain constant region), conjugated to cleavable (Val-Citruline-PEG1) MMAF drug-linker
B3: Humanized Anti-PSMA Antibody Variant 2 ADC, MMAF payload, Short Cleavable (Valine-Citruline-Acetyl) linker (antibody, human IgG1, kappa, V domains shown)
VH: QVQLVQSGAEVKKPGASVKVSCKASGYTFTEYTIHWVRQAPGQRLEWMGNINPNNGGTTYNQKFEDRVTITRDTSASTAYMELSSLRSEDTAVYYCAAGWNFDYWGQGTTLTVSS
VL: DIQLTQSPSFLSASVGDRVTITCKASQDVGTAVDWYQQKPGKAPKLLIYWASTRHTGVPSRFSGSGSGTEFTLTISSLQSEDFATYYCQQYNSYPLTFGGGTKVEIKR
modifications: para-acetyl phenylalanine (pAF) at position A114 (Kabat numbering; first residue of the heavy chain constant region), conjugated to short cleavable (Valine-Citruline-Acetyl) MMAF drug-linker
B4: Humanized Anti-PSMA Antibody Variant 1 ADC, MMAF payload, Short Cleavable (Valine-Citruline-Acetyl) linker (antibody, human IgG1, kappa, V domains shown)
VH: QVQLVQSGAEVKKPGASVKVSCKASGYTFTEYTIHWVRQAPGQRLEWMGNINPNNGGTTYNQKFEDRVTITRDTSASTAYMELSSLRSEDTAVYYCAAGWNFDYWGQGTTLTVSS
VL: DIQLTQSPSFLSASVGDRVTITCKASQDVGTAVDWYQQKPGKAPKLLIYWASTRHTGVPSRFSGSGSGTEFTLTISSLQPEDFATYYCQQYNSYPLTFGGGTKVEIKR
modifications: para-acetyl phenylalanine (pAF) at position A114 (Kabat numbering; first residue of the heavy chain constant region), conjugated to short cleavable (Valine-Citruline-Acetyl) MMAF drug-linker
B5: Humanized Anti-PSMA Antibody Variant 1 ADC, MMAF payload, Non-Cleavable (PEG3) linker (antibody, human IgG1, kappa, V domains shown)
VH: QVQLVQSGAEVKKPGASVKVSCKASGYTFTEYTIHWVRQAPGQRLEWMGNINPNNGGTTYNQKFEDRVTITRDTSASTAYMELSSLRSEDTAVYYCAAGWNFDYWGQGTTLTVSS
VL: DIQLTQSPSFLSASVGDRVTITCKASQDVGTAVDWYQQKPGKAPKLLIYWASTRHTGVPSRFSGSGSGTEFTLTISSLQPEDFATYYCQQYNSYPLTFGGGTKVEIKR
modifications: para-acetyl phenylalanine (pAF) at position A114 (Kabat numbering; first residue of the heavy chain constant region), conjugated to non-cleavable (PEG3) MMAF drug-linker
B6: Humanized Anti-PSMA Antibody Variant 2 ADC, MMAE payload, Non-Cleavable (PEG3) linker (antibody, human IgG1, kappa, V domains shown)
VH: QVQLVQSGAEVKKPGASVKVSCKASGYTFTEYTIHWVRQAPGQRLEWMGNINPNNGGTTYNQKFEDRVTITRDTSASTAYMELSSLRSEDTAVYYCAAGWNFDYWGQGTTLTVSS
VL: DIQLTQSPSFLSASVGDRVTITCKASQDVGTAVDWYQQKPGKAPKLLIYWASTRHTGVPSRFSGSGSGTEFTLTISSLQSEDFATYYCQQYNSYPLTFGGGTKVEIKR
modifications: para-acetyl phenylalanine (pAF) at position A114 (Kabat numbering; first residue of the heavy chain constant region), conjugated to non-cleavable (PEG3) MMAE drug-linker
B7: Humanized Anti-PSMA Antibody Variant 2 ADC, MMAF payload, Non-Cleavable (PEG3) linker (antibody, human IgG1, kappa, V domains shown)
VH: QVQLVQSGAEVKKPGASVKVSCKASGYTFTEYTIHWVRQAPGQRLEWMGNINPNNGGTTYNQKFEDRVTITRDTSASTAYMELSSLRSEDTAVYYCAAGWNFDYWGQGTTLTVSS
VL: DIQLTQSPSFLSASVGDRVTITCKASQDVGTAVDWYQQKPGKAPKLLIYWASTRHTGVPSRFSGSGSGTEFTLTISSLQSEDFATYYCQQYNSYPLTFGGGTKVEIKR
modifications: para-acetyl phenylalanine (pAF) at position A114 (Kabat numbering; first residue of the heavy chain constant region), conjugated to non-cleavable (PEG3) MMAF drug-linker
B8: Humanized Anti-PSMA Antibody Variant 2 ADC, MMAE payload, Short Cleavable (Valine-Citruline-Acetyl) linker (antibody, human IgG1, kappa, V domains shown)
VH: QVQLVQSGAEVKKPGASVKVSCKASGYTFTEYTIHWVRQAPGQRLEWMGNINPNNGGTTYNQKFEDRVTITRDTSASTAYMELSSLRSEDTAVYYCAAGWNFDYWGQGTTLTVSS
VL: DIQLTQSPSFLSASVGDRVTITCKASQDVGTAVDWYQQKPGKAPKLLIYWASTRHTGVPSRFSGSGSGTEFTLTISSLQSEDFATYYCQQYNSYPLTFGGGTKVEIKR
modifications: para-acetyl phenylalanine (pAF) at position A114 (Kabat numbering; first residue of the heavy chain constant region), conjugated to short cleavable (Valine-Citruline-Acetyl) MMAE drug-linker
B9: Humanized Anti-PSMA Antibody Variant 1 ADC, MMAE payload, Short Cleavable (Valine-Citruline-Acetyl) linker (antibody, human IgG1, kappa, V domains shown)
VH: QVQLVQSGAEVKKPGASVKVSCKASGYTFTEYTIHWVRQAPGQRLEWMGNINPNNGGTTYNQKFEDRVTITRDTSASTAYMELSSLRSEDTAVYYCAAGWNFDYWGQGTTLTVSS
VL: DIQLTQSPSFLSASVGDRVTITCKASQDVGTAVDWYQQKPGKAPKLLIYWASTRHTGVPSRFSGSGSGTEFTLTISSLQPEDFATYYCQQYNSYPLTFGGGTKVEIKR
modifications: para-acetyl phenylalanine (pAF) at position A114 (Kabat numbering; first residue of the heavy chain constant region), conjugated to short cleavable (Valine-Citruline-Acetyl) MMAE drug-linker

Target: prostate specific membrane antigen (PSMA) (UniProt Q04609 1-750, limits assumed)
Sequence (Q04609 whole entry): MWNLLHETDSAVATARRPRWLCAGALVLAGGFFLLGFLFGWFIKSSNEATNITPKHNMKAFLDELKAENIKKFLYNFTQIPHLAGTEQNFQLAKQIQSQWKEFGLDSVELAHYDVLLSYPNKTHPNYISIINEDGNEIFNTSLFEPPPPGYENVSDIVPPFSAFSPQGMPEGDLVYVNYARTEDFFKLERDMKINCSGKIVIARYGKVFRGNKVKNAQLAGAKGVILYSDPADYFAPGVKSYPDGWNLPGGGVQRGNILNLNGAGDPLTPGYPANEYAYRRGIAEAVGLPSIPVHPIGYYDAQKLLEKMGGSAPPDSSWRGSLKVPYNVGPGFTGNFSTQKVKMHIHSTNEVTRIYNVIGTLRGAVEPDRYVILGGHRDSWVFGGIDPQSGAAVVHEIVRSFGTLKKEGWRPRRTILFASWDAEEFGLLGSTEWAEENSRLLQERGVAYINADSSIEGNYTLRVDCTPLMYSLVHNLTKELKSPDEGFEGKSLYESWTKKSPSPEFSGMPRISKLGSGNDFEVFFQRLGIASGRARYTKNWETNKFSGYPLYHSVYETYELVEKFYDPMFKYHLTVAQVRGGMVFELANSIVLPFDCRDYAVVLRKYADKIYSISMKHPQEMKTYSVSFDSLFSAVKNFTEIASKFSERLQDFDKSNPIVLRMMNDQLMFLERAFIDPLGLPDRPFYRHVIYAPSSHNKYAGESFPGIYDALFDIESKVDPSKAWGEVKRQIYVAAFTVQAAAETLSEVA
Assay: cell-based or functional assay

| Binder | Cell Killing (%), C4-2 cell line | IC50 (nM), in vitro cell killing in C4-2 cell line (Cell Titer Glo, 96 h) |
| --- | --- | --- |
| B1 | 64.5% | 11.3 nM |
| B2 | 91% | 0.051 nM |
| B3 | 91% | 0.053 nM |
| B4 | 92% | 0.064 nM |
| B5 | 80.5% | 0.543 nM |
| B6 | 67% | 12.5 nM |
| B7 | 81% | 0.503 nM |
| B8 | 81.5% | 0.52 nM |
| B9 | 81.5% | 0.542 nM |
